Test results from paper PMC3210382.

Molecular target: BoNT/A toxoid (formaldehyde-inactivated botulinum neurotoxin type A, 150 kDa) (UniProt P0DPI1 2-1296)
Assay: […]

BoNT/A toxoid (formaldehyde-inactivated botulinum neurotoxin type A, 150 kDa), sequence (P0DPI1 2-1296): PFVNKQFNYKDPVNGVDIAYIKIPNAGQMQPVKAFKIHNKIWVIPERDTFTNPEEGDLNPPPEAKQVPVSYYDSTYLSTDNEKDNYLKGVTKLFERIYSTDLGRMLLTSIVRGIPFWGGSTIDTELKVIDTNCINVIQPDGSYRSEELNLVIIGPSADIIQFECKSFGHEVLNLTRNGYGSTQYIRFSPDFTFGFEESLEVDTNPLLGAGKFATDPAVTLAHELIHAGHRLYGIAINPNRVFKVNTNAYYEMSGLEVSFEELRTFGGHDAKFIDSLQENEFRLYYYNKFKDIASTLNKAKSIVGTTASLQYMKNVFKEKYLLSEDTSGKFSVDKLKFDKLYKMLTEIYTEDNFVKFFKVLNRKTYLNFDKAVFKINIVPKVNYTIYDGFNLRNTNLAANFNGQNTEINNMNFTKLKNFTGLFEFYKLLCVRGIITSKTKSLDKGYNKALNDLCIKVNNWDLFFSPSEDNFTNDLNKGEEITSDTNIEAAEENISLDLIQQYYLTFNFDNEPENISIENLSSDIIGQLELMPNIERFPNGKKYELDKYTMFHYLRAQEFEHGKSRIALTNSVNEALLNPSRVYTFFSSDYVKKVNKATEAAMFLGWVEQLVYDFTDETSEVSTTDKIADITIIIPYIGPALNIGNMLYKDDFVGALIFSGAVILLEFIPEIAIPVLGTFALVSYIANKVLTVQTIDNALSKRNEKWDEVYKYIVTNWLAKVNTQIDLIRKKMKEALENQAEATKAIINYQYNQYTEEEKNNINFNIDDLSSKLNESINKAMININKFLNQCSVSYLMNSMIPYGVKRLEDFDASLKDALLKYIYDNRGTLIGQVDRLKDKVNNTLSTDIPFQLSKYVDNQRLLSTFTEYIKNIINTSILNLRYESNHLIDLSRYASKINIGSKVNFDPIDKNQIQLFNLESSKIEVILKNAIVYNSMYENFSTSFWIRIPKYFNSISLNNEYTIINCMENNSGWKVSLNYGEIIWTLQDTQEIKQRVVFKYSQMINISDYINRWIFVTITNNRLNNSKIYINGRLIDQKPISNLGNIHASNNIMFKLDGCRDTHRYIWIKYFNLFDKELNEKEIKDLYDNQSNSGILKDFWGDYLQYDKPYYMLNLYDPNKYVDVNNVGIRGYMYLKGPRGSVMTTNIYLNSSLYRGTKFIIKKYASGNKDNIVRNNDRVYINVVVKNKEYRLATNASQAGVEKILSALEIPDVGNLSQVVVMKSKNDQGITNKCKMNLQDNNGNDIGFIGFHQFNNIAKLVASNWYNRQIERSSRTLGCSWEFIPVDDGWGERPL

B1: BoNT/A aptamer (76 nt) (ssDNA)
DNA: ATACCAGCTTATTCAATTGACATGACTGGGATTTTTGGCGAAATCGAAGGAAGCGGAGAGATAGTAAGTGCAATCT
binding signal: ~3.8 signal-to-background ratio
